Assay results reported in patent US20140274782A1 (Stanford University, published 2014).

Legend:
Experiment in all cases: ProtoArray, GST-treated control array;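 further: human protein microarray (about 9500 recombinant proteins) incubated overnight with GST alone plus SAM cofactor as the negative control for G9a SET domain methylation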
[1] = target: T1, ZRANB1-zinc finger, RAN-binding domain containing 1 (ZRANB1) (human, UniProt Q9UGI0 1-708)
T1 sequence (looked up): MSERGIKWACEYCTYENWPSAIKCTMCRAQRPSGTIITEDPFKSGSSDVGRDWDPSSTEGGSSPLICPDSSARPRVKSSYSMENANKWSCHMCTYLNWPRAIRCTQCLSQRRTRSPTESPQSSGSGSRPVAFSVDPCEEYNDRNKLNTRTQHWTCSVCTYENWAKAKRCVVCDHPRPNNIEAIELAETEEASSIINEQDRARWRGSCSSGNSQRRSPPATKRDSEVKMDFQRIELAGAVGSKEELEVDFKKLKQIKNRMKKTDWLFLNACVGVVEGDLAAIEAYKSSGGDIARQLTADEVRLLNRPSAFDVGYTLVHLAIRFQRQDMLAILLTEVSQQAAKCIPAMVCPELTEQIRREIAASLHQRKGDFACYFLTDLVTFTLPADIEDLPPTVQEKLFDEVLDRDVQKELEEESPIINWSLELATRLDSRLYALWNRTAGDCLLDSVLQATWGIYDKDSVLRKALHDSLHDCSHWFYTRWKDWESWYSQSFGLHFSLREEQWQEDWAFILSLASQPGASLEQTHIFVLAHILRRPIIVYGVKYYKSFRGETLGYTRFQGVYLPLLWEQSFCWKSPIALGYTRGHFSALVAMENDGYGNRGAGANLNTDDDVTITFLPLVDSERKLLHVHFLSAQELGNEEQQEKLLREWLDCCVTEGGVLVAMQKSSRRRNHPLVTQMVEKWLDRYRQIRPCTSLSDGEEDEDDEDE

[2] = target: T2, FKBP14-FK506 binding protein 14, 22 kDa (FKBP14) (human, UniProt Q9NWM8 20-211)
T2 sequence (looked up): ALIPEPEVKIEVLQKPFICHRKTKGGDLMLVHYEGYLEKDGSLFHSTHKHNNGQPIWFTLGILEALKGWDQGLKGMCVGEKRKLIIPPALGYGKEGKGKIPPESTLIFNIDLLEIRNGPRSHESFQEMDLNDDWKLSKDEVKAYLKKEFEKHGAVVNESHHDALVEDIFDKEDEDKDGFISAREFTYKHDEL

[3] = target: PSMA8-proteasome (prosome, macropain) subunit, alpha type, 8 (PSMA8) (human, UniProt Q8TAA3 1-256, limits assumed)
Sequence of PSMA8-proteasome (prosome, macropain) subunit, alpha type, 8 (PSMA8) (Q8TAA3 whole entry, the tested form may be a part): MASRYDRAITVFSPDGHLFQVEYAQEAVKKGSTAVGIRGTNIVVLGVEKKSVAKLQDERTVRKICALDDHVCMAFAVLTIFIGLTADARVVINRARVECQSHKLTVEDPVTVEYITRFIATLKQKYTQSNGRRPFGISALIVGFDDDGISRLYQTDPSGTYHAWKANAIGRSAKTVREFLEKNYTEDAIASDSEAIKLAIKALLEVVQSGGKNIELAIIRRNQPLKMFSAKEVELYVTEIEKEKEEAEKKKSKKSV

[4] = target: T3, TMED5-transmembrane emp24 protein transport domain containing 5 (TMED5) (human, UniProt Q9Y3A6 28-229, limits assumed)
T3 sequence (looked up): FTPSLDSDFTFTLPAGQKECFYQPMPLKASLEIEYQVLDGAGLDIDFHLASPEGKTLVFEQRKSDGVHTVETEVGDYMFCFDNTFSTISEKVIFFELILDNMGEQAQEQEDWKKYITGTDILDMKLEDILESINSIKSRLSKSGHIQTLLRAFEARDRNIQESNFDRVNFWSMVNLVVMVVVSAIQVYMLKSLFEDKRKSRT

[5] = target: T4, SMYD3-SET and MYND domain containing 3 (SMYD3) (human, UniProt Q9H7B4 1-428, limits assumed)
T4 sequence (looked up): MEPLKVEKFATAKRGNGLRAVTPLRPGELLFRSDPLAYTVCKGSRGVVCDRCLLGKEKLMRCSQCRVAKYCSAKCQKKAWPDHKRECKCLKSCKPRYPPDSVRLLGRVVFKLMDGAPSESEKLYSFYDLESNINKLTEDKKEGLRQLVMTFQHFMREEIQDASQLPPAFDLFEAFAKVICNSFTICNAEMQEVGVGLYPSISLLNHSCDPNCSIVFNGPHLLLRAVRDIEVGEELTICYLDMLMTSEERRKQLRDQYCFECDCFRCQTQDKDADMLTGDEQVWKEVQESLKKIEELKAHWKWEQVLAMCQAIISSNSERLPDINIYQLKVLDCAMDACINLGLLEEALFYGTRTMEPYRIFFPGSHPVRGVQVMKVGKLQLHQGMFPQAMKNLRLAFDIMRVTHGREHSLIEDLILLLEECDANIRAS

[6] = target: SERPINB2-serpin peptidase inhibitor, clade B (ovalbumin), member 2 (SERPINB2) (human, UniProt P05120 1-415)
Sequence of SERPINB2-serpin peptidase inhibitor, clade B (ovalbumin), member 2 (SERPINB2) (P05120 whole entry): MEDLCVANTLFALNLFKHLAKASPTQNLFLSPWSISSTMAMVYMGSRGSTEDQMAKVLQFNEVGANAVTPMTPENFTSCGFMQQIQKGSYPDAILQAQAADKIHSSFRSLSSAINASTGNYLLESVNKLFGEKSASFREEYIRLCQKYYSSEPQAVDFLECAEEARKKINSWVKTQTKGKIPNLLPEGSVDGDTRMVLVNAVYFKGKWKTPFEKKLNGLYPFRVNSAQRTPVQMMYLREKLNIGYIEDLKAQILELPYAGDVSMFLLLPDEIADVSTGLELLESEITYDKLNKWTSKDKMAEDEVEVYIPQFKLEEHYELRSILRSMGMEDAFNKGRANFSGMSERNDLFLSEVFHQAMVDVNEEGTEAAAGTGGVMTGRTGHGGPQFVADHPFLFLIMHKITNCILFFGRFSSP

[7] = target: SAR1B-SAR1 gene homolog B (S. cerevisiae) (SAR1B), transcript variant 2 (human, UniProt Q9Y6B6 1-198)
Sequence of SAR1B-SAR1 gene homolog B (S. cerevisiae) (SAR1B), transcript variant 2 (Q9Y6B6 whole entry, change not shown): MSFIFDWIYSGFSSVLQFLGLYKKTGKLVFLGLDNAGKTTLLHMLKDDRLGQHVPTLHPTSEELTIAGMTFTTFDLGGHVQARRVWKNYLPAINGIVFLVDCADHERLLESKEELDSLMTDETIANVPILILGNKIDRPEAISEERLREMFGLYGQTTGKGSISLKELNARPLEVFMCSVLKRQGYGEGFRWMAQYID

[8] = target: TTC27-Tetratricopeptide repeat protein 27 (human, UniProt Q6P3X3 1-843)
[9] = target: ARL6IP1-ADP-ribosylation factor-like 6 interacting protein 1 (ARL6IP1) (human, UniProt Q15041 1-203, limits assumed)
Sequence of ARL6IP1-ADP-ribosylation factor-like 6 interacting protein 1 (ARL6IP1) (Q15041 whole entry): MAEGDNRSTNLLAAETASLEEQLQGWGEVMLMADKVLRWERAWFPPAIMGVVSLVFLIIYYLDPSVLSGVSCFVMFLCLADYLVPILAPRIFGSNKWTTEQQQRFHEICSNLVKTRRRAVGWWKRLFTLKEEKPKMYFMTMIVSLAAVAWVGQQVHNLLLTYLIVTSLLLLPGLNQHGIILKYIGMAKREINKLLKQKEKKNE

[10] = target: T5, UBE2S-Ubiquitin-conjugating enzyme E2 S (human, UniProt Q16763 1-222)
T5 sequence (looked up): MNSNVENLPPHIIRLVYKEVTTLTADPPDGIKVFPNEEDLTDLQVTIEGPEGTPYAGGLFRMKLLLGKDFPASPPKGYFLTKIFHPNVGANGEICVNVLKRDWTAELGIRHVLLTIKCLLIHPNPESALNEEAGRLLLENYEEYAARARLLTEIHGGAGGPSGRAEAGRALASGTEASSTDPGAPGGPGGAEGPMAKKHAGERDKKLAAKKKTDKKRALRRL

[11] = target: T6, CLDN15-claudin 15 (CLDN15) (human, UniProt P56746 1-228)
T6 sequence (looked up): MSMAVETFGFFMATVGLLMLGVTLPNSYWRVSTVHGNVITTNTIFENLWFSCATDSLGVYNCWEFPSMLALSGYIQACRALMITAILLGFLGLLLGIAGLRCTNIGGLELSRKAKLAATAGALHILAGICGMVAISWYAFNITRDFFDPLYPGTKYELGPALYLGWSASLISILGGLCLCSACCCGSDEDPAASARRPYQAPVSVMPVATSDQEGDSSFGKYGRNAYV

[12] = target: LOC400500-PREDICTED: Homo sapiens hypothetical LOC400500 (LOC400500) (human)

- GST Average SNR [1]: -0.43
- GST Average SNR [2]: 1.24
- GST Average SNR [3]: -0.846
- GST Average SNR [4]: -0.425
- GST Average SNR [5]: 1.3
- GST Average SNR [6]: 0.54
- GST Average SNR [7]: 0.558
- GST Average SNR [8]: 0.496
- GST Average SNR [9]: 1.05
- GST Average SNR [10]: 0.283
- GST Average SNR [11]: -0.296
- GST Average SNR [12]: -0.119
B1: 3× Flag-3×MBT (designed binder)
chain: EEWSSSQPATGEKKECWSWESYLEEQKAITAPVSLFQDSQAVTHNKNGFKLGMKLEGIDPQHPSMYFILTVAEVCGYRLRLHFDGYSECHDFWVNANSPDIHPAGWFEKTGHKLQPPKGYKEEEFSWSQYLRSTRAQAAPKHLFVSQSHSPPPLGFQVGMKLEAVDRMNPSLVCVASVTDVVDSRFLVHFDNWDDTYDYWCDPSSPYIHPVGWCQKQGKPLTPPQDYPDPDNFCWEKYLEETGASAVPTWAFKVRPPHSFLVNMKLEAVDRRNPALIRVASVEDVEDHRIKIHFDGWSHGYDFWIDADHPDIHPAGWCSKTGHPLQPPLGPREPSSASPGG
notes: also called Flag-tagged 3×MBT; 3xFlag-3xMBT; not shown: made by PreScission cleavage of GST-3× Flag-3×MBT
